Laboratory results as given in patent US20230174641A1 (H LUNDBECK A S, published 2023).
Where a chain is given by its changes, count along the chain named. Values belong to the binder of their own block, whether it stands above or below them. Ends that are not written are not given here.

Legend:
human ACTH 1-39 [1] = target: T1, human ACTH 1-39 (human); test: cell-based or functional assay
T1 peptide: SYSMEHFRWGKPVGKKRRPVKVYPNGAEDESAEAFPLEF

human ACTH 1-39 [2] = target: T1, human ACTH 1-39; test: cell-based or functional assay
human ACTH 1-39 [3] = target: T1, human ACTH 1-39; test: SPR ProteOn, antibody immobilised
Method: (§1) Antibody was immobilized to the surface of general amine coupling (GLC or GLM) Chips (Bio-Rad). […] At the chosen concentrations of antigen (ranging from 454 ng/ml to 5.6 ng/ml) association times of 200 seconds and dissociation times of 30-200 minutes were used with the ProteOnTM Manager Software (v3.1.0.6, Bio-Rad) to group and fit data using a 1:1 Langmuir binding model. Surfaces were regenerated between analyte queries using 10 mM glycine at pH 2.0. Data repeated across a single density was averaged and a single KD and standard propagation of error calculated for each antibody.

human ACTH 18-39 [4] = target: T2, human ACTH 18-39 (human); test: SPR ProteOn, antibody immobilised
T2 construct: also called CLIP; CLIP (ACTH 18-39)
T2 peptide: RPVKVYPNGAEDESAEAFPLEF
Method: as §1

human ACTH 1-13 [5] = target: T3, human ACTH 1-13 (human, ends and bridges not checked); test: SPR ProteOn, antibody immobilised; SPR, antibody on the chip, alpha-MSH alone (Table 6)
T3 construct: also called human alpha-MSH (ACTH 1-13); alpha-MSH
T3 peptide: SYSMEHFRWGKPV
Method: as §1

[6] = target: T4, N-term biotinylated human ACTH 1-39 (human, N-terminal biotin); test: ELISA, biotin-ACTH 1-39 on neutravidin plate
T4 construct: also called huACTH 1-39
T4 peptide: T1 peptide
Method: All incubations were done at room temperature. […] The plates were then blocked using a blocking solution (PBS, 0.5% fish skin gelatin, 0.05% Tween-20) for approximately one hour. The blocking solution was then removed and the plates were then incubated with a dilution series of the antibody being tested for approximately one hour. At the end of this incubation, the plate was washed three times with wash buffer and further incubated with a secondary antibody containing solution (Peroxidase conjugated AffmiPure™ F(ab′)₂ fragment goat anti-human IgG, Fc fragment specific (Jackson Immunoresearch) for approximately 45 minutes and washed three times. Next a substrate solution (TMB peroxidase substrate, BioFx®, SurModics, Eden Prairie, Minn.) was added and incubated for 3 to 5 minutes in the dark. The reaction was stopped by addition of 0.5 M HCl and the plate was read at 450 nm in a plate-reader.

human ACTH 1-39 [7] = target: T1, human ACTH 1-39; test: cell-based or functional assay
human ACTH 1-39 [8] = target: T1, human ACTH 1-39; test: cell-based or functional assay
ACTH 1-24 = target: T5, ACTH 1-24 (human); test: cell-based or functional assay
T5 peptide: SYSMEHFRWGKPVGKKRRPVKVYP

human ACTH 1-13 [9] = target: T3, human ACTH 1-13; test: SPR ProteOn, antibody immobilised
Method: as §1

human ACTH 18-39 [10] = target: T2, human ACTH 18-39; test: SPR ProteOn, antibody immobilised; SPR, antibody on the chip, CLIP alone (Table 5)
Method: as §1

B1: Ab6 (antibody, human IgG1, kappa, N297A, V domains shown)
VH: QSVEESGGRLVTPGTPLTLTCTVSGFSLTDYAMSWVRQAPGEGLEWIGIISDSGSTYYASWAKGRFTFSKTSTTVDLRITSPTTEDTATYFCAREPEYGYDEYGDWVSDLWGPGTLVTVSS
VL: DIVMTQTPASVEAAVGGAVTIKCQATQSIGNNLAWYQQKPGQPPKLLIYRASTLASGVPSRFKGSGSGTEFTLTISDLECADAATYYCQSYYYSSSITYHNAFGGGTEVVVKR
notes: rabbit/human chimeric antibody, made in HEK-293
- MC3R IC50 (human ACTH 1-39 [1]): 62.8 nM
- MC4R IC50 (human ACTH 1-39 [1]): 55.2 nM
- MC5R IC50 (human ACTH 1-39 [1]): 1000 nM
- MC2R IC50 (human ACTH 1-39 [2]): 0.03 nM
- Kd (human ACTH 1-39 [3]): 0.019 nM
- koff (human ACTH 1-39 [3]): 1.9e-05 s⁻¹
- kon (human ACTH 1-39 [3]): 1e+06 M⁻¹ s⁻¹
- koff (human ACTH 18-39 [4]): > 0.1 s⁻¹
- Kd (human ACTH 1-13 [5]): 16 nM
- koff (human ACTH 1-13 [5]): 0.0052 s⁻¹
- kon (human ACTH 1-13 [5]): 330000 M⁻¹ s⁻¹
- EC50 [6]: 2 nM
- Y1 Cells IC50 (human ACTH 1-39 [7]): 1.44 nM
- MC1R IC50 (human ACTH 1-39 [8]): 1.04 nM
- IC50 (nM), cAMP in MC2R cells (ACTH 1-24): 0.1 nM

B3: Ab10 (antibody, human IgG1, kappa, N297A, V domains shown)
VH: QSVEESGGRLVTPGTPLTLTCTVSGFSLSSADMIWVRQAPGKGLESIGMIYDDGDTYYATWAKGRFTISKTSTTVDLKIISPTTEDTATYFCVKGVSSVWGQGTLVTVSS
VL: DVVMTQTPASVEAAVGGTVTINCQASENIYRSLAWYQQKPGQPPKLLIYSASTLASGVPSRFKGSGSGTEFTLTISDLECADAATYYCQSYDGSSSSSYGVGFGGGTEVVVKR
notes: as for B1
- MC3R IC50 (human ACTH 1-39 [1]): 133 nM
- MC4R IC50 (human ACTH 1-39 [1]): 66.3 nM
- MC5R IC50 (human ACTH 1-39 [1]): 5400 nM
- Kd (human ACTH 18-39 [10]): 250 nM
- koff (human ACTH 18-39 [10]): 0.27 s⁻¹
- kon (human ACTH 18-39 [10]): 1.1e+06 M⁻¹ s⁻¹
- MC2R IC50 (human ACTH 1-39 [2]): 0.16 nM
- koff (human ACTH 1-13 [9]): > 0.1 s⁻¹
- Kd (human ACTH 1-39 [3]): 0.11 nM
- koff (human ACTH 1-39 [3]): 0.00011 s⁻¹
- kon (human ACTH 1-39 [3]): 1e+06 M⁻¹ s⁻¹
- EC50 [6]: 1.57 nM
- Y1 Cells IC50 (human ACTH 1-39 [7]): 5.98 nM
- MC1R IC50 (human ACTH 1-39 [8]): 2.14 nM

Stronger by EC50 [6], values ahead:

- MC3R IC50 (human ACTH 1-39 [1]): 79 nM
- MC4R IC50 (human ACTH 1-39 [1]): 54.5 nM
- MC5R IC50 (human ACTH 1-39 [1]): 1100 nM
- MC2R IC50 (human ACTH 1-39 [2]): 0.25 nM
- koff (human ACTH 1-13 [9]): > 0.1 s⁻¹
- Kd (human ACTH 18-39 [4]): 31 nM
- koff (human ACTH 18-39 [4]): 0.026 s⁻¹
- kon (human ACTH 18-39 [4]): 840000 M⁻¹ s⁻¹
- EC50 [6]: 0.42 nM
- MC1R IC50 (human ACTH 1-39 [8]): 3.62 nM
- IC50 (nM), cAMP in MC2R cells (ACTH 1-24): 1.3 nM
B2: Ab2 (antibody, human IgG1, kappa, N297A, V domains shown)
VH: B3 VH with S30K, A31Y, M49I, T60S, K70Q, S98N, V99I
VL: B3 VL with N22K, E27Q, N28S, Y30S, R31N, S32Y, P40T, D92E
notes: as for B1

- MC3R IC50 (human ACTH 1-39 [1]): 58.7 nM
- MC4R IC50 (human ACTH 1-39 [1]): 54.2 nM
- MC5R IC50 (human ACTH 1-39 [1]): 1100 nM
- MC2R IC50 (human ACTH 1-39 [2]): 0.29 nM
- koff (human ACTH 1-13 [9]): > 0.1 s⁻¹
- Kd (human ACTH 18-39 [4]): 25 nM
- koff (human ACTH 18-39 [4]): 0.0085 s⁻¹
- kon (human ACTH 18-39 [4]): 340000 M⁻¹ s⁻¹
- EC50 [6]: 0.24 nM
- Y1 Cells IC50 (human ACTH 1-39 [7]): 7.72 nM
- MC1R IC50 (human ACTH 1-39 [8]): 4.12 nM
- IC50 (nM), cAMP in MC2R cells (ACTH 1-24): 0.8 nM
B4: Ab3 (antibody, human IgG1, kappa, N297A, V domains shown)
VH: QSLEESGGRLVTPGTPLTLTCTVSGSSLSNFDMIWVRQAPGKGLESIGIIYDFGSTYYASWAKGRFTISRTSSTTVDLKIISPTIEDTATYFCVKGVSNIWGQGTLVTVSS
VL: B3 VL with N22K, N28D, Y30S, R31S, S32N, P40L, T74A, V101I
notes: as for B1
